Data on four molecules can be found in US10788499B2, “Methods for assaying palmitoyl protein thioesterase 1 and tripeptidyl peptidase activity in dried blood spots for detection of neuronal ceroid lipofuscinoses in newborns” (University of Washington, priority 2015, dated 2020).

Ends that are not written are not given here. * marks the point of attachment. Lauroyl = CCCCCCCCCCCC(=O)*

The nature of data set [1]: Incubation of synthetic PPT1-P in assay buffer with DBS (digestion by proteolytic enzymes in rehydrated DBS). Particulars: 18 h. Type of data set: in vitro ADME, human. Here is the method:
The leveling-off effect can be in part due to enzymatic digestion of PPT1-P by proteolytic enzymes in rehydrated DBS. This was checked by incubating synthetic PPT1-P in the assay buffer with DBS for 18 h. […] Since PPT1-P and PPT1-IS are similar hydrophobic peptides, it is safe to presume that their depletion will occur at similar rates and will not affect their molar ratio. […] Based on these measurements, the incubation time for both PPT1 and TPP1 was set at 10 h. The enzyme kinetics with respect to the synthetic substrates was established through Michaelis-Menten plots which were fitted to obtain the Km and Vmax values (FIGS. 12A and 12B). Each Michaelis-Menten curve was obtained from triplicate activity measurements over an appropriate substrate concentration range (0-500 μM and 0-300 μM). […] The measured Km were used to adjust the initial substrate concentrations in the assays to ≥2 Km value, e.g. 0.46 and 0.40 mM for PPT1-S and TPP1-S, respectively.

The target of data set [2] is T1, palmitoyl protein thioesterase 1 (PPT1) (Homo sapiens, UniProt P50897).
T1 construct: from tissue; host or cells: dried blood spots from human newborns, NCL patients and a healthy adult control
T1 sequence (P50897 28-306): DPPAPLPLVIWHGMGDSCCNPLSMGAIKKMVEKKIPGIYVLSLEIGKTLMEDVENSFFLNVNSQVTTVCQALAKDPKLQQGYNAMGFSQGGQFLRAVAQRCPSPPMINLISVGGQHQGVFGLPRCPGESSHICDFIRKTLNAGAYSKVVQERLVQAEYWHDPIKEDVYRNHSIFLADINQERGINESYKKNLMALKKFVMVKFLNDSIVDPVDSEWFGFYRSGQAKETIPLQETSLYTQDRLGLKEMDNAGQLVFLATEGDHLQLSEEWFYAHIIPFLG
The experiment in a line: PPT1 assay in dried blood spots with synthetic substrate, tandem mass spectrometry (SRM). It counts as biochemical. Here is the method:
(§1) Electrospray-MS/MS was carried out on a Waters Quattro Micro tandem quadrupole (quadrupole-hexapole-quadrupole) instrument using a positive ionization mode and selected reaction monitoring (SRM). Samples (10 μL) were flow-injected with an autosampler in an acetonitrile/water (v/v=80:20) solution containing 0.1% formic at a flow rate of 0.2 mL/min. The mass spectrometer settings were as follows: Capillary voltage 3.5 kV; cone 35 V; extractor 2.0 V; RF lens, 0.2 V; source temperature, 120° C.; desolvation temperature, 250° C.; cone gas flow, 50 L/h; desolvation gas flow, 500 L/h; LM 1 resolution, 14.8; HM 1 resolution, 14.8; ion energy 1, 0.2 eV; entrance, 2 V; collision, 25 eV; exit, 15 V; LM 2 resolution, 14.8; HM 2 resolution, 14.8; ion energy 2, 1.0 eV; multiplier, 650 V; gas cell Pirani pressure, 2.21×10^−3 mbar; dwell time 100 ms. Shorter dwell times (10 ms) were also investigated on the Quattro Micro instrument but led to increased coefficients of variation (CV) for intra-assay measurements from 1.5% at 100 ms to 4% at 10 ms, all for triplicate injections. The precursor ion-fragment ion SRM transitions for the PPT1 assays were monitored at m/z 762.5→m/z 423.5 and m/z 678.4→m/z 423.4 for PPT1-P and PPTI-IS, respectively, corresponding to the formation of the abundant y4 fragment ion of the peptide (FIGS. 1A and 1B). The SRM transitions for the TPP1 assays were monitored at m/z 308.3→m/z 208.3 and m/z 317.3→m/z 209.3 for TPP1-P and TPP1-IS, respectively, as shown in FIG. 2.
A 3-mm punch of a dried blood spot was placed in a 1.5 mL polypropylene tube (Eppendorf) and 100 μL of 100 mM phosphate buffer solution (pH 7) containing 46 nmol of PPT1 substrate (PPT1-S, FIG. 5 (left)) and 2.6 nmol of PPT1 internal standard (PPT1-IS) and 0.08% v/v Triton X-100 (ACROS, Cat #21568) was added. The solution was then vortexed briefly and incubated for 10 h at 37° C. in a thermostated air shaker at 250 rpm. After the incubation period was over, the sample was placed in an ice bath and the reaction was quenched by addition of 300 μL of ethyl acetate and 100 μL of deionized water. […]

Data set [3] in a line: Non-enzymatic hydrolysis of substrate in blank (absence of DBS), pH dependence. It counts as physicochemical. An excerpt:
The PPT1 activity is known to have an optimum activity at pH 7 when acting on the natural substrate. […] The production of TPP-P by non-enzymatic hydrolysis in the blank sample at pH 4 was ca. 15 fold lower than that due to TPP1 activity in the DBS.

For data set [4], the target named is T2, tripeptidyl peptidase 1 (TPP1) (Homo sapiens, UniProt O14773).
T2 construct: from tissue; host or cells: dried blood spots from human newborns, NCL II patients and a control
T2 sequence (O14773 196-563): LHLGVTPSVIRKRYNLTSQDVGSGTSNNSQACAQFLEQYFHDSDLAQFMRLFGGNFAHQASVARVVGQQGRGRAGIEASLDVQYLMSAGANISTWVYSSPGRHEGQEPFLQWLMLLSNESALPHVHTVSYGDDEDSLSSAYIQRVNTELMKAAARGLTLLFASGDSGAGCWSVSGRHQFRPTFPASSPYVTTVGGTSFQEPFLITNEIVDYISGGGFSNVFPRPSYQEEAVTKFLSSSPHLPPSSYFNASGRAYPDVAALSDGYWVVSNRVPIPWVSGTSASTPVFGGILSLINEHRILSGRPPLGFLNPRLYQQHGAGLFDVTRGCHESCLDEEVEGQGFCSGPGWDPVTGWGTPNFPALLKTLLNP
The experiment in a line: TPP1 assay in dried blood spots with synthetic substrate, tandem mass spectrometry (SRM). It counts as biochemical. As to the method:
as §1
TPP1 substrate solution was prepared by dissolving 5 mg TPP1 substrate (FIG. 5 (right)) in 1.5 mL of dimethyl sulfoxide (DMSO). 1 mg TPP1 IS was dissolved in 1.5 mL of assay buffer, which contained 0.15 M NaCl and 0.1 M sodium acetate buffer at pH 4.0. This concentrated TPP1 IS solution was further diluted with stock assay buffer to make a 300 μM IS solution. The assay cocktail was a 100 μL mixture composed of 7.2 μL of substrate solution (40 nmol), 5 μL of 300 μM IS solution (1.5 nmol) and additional 87.8 μL of stock assay buffer. […]

Data set [5] addresses T3, palmitoyl protein thioesterase (Homo sapiens, UniProt P50897).
T3 sequence (P50897 28-306): T1 sequence (P50897 28-306)
Briefly: Simplex PPT1 assay (C12 thioester substrate) carried out with recombinant palmitoyl protein thioesterase, LC-MS/MS. Type of data set: biochemical. The conditions noted are these: 2 μL recombinant PPT1 enzyme, 0.6 mM C12 thioester substrate, pH 6.75. Here is the method: Assay cocktail: a substrate and internal standard stock solution (methanol solution) were pipetted into a vial and dried using a speed vacuum. After all the solvent is removed, the residue was diluted with assay buffer (0.1M phosphate citrate buffer, 0.08% Triton X-100 (or sodium taurocholate), 0.1 mM EDTA (or no EDTA) at pH=6.75) to a final concentration of 0.6 mM (substrate), 30 μM (Internal Standard), and mixed by vortexing.
[…] For the blank control, a 3.2 mm filter paper punch was placed in a vial. 30 μL of assay cocktail was added to each vial, which either includes dried blood spot (or filter paper blanks). The Eppendorf vial is shaken at 37° C. for 16 hrs using an orbital shaker (250 rpm)/incubator.
After the incubation, the assay is quenched with 100 μL of methanol/ethyl acetate=50/50 mixture, and then 400 μL of ethyl acetate, then 200 μL of 0.5M NaCl(aq), pipette up and down 10× times to mix well.
The sample tubes were then centrifuged at 3000 rpm for 5 minutes. 200 μL of upper layer solution (organic layer) was removed, and transferred to a new shallow plate. The solvent was evaporated under nitrogen gas flow, the remaining solid was reconstituted with 100 μL LC-MS solvent (55/45 water/acetonitrile with 0.1% formic acid). The solution was mixed up and down about 10 times with a pipettor.
The plate was placed on the autosampler of the LC-MS/MS for isocratic LC-MS/MS. […]

The mark [6] stands for this setting: PPT1 in DBS, Michaelis-Menten fit, triplicate activity measurements.
[7] abbreviates: TPP1 in DBS, Michaelis-Menten fit, triplicate activity measurements.

On to Ac-ALLPFGC [PPT1-P], for which, in data set [1], the “decrease of PPT1-P compared to a control sample” value is 25-27%.
Regarding “N-Ac-Ala-Leu-Leu-Pro-Phe-Gly-Cys-S—COC11H23 (Ac-ALLPFGC(Lauroyl); also: S-acyl: name COC11H23, mods S-palmitoyl) [PPT1 substrate, cysteine terminated heptapeptide carrying an S-palmitoyl group]”, the “product produced on average per one DBS” value in data set [2] (10 h incubation) was 4.7 nmol. Also, in data set [2] (setting [6]), the Michaelis constant (Km) is 230 µM and the Vmax stood at 217.0 µmol/L/h. Moreover, in data set [3] (between pH 7 and 8), the “non-enzymatic hydrolysis of the thioester bond” value was “substantially increased”.
For the molecule `C[C@H](N)C(=O)N[C@@H](C)C(=O)N[C@@H](Cc1ccccc1)C(=O)NCc1ccc(C(=O)NCCCNC(=O)OC(C)(C)C)cc1` [TPP1 substrate], the “product produced per DBS” value in data set [4] (10 h incubation) is 1.7 nmol/DBS. In data set [4] (setting [7]), the Km was found to be 53.3 µM and the Vmax was 46.0 µmol/L/h. Also, the “production of TPP-P by non-enzymatic hydrolysis in the blank sample, fold lower than that due to TPP1 activity in the DBS” value in data set [3] (pH 4) is recorded as “ca. 15 fold”.

B1: recombinant PPT1 enzyme: recombinant palmitoyl protein thioesterase (protein, UniProt P50897 28-306, looked up)
Palmitoyl-protein …: T1 sequence (P50897 28-306)
Turning to B1, the activity in data set [5] is 40.4682 μmol/Lh.
